This experiment addresses T1, WKYMVm‐NH2.
T1 construct: synthetic hexapeptide agonist of formyl peptide receptors; also called W‐peptide; target peptide; source: synthetic peptide (custom peptide synthesis, purity >95%)
T1 peptide: WKYMV[dM]-NH2
The experiment is described as follows: SPR; graphene-enhanced MP-SPR; peptide immobilised on PBA-graphene by amine coupling; nucleofected HEK293T cells (≈100 cells mL^-1) injected at 10 µL min^-1 for 20 min in C1 buffer pH 7.4; 22 °C. Particulars: one partner purified. In general terms: Surface plasmon resonance follows binding to a sensor surface in real time, without labels.

Non-standard residues stand in square brackets, D forms with d. No end group written: not given here.

B1: Formyl peptide receptor 2 (FPR2) on transfected HEK293T cells (receptor, human, UniProt P25090 1-351, looked up)
chain: METNFSTPLNEYEEVSYESAGYTVLRILPLVVLGVTFVLGVLGNGLVIWVAGFRMTRTVTTICYLNLALADFSFTATLPFLIVSMAMGEKWPFGWFLCKLIHIVVDINLFGSVFLIGFIALDRCICVLHPVWAQNHRTVSLAMKVIVGPWILALVLTLPVFLFLTTVTIPNGDTYCTFNFASWGGTPEERLKVAITMLTARGIIRFVIGFSLPMSIVAICYGLIAAKIHKKGMIKSSRPLRVLTAVVASFFICWFPFQLVALLGTVWLKEMLFYGKYKIIDILVNPTSSLAFFNSCLNPMLYVFVGQDFRERLIHSLPTSLERALSEDSAPTNDTAANSASPPAETELQAM
notes: formyl peptide receptor 2, human, gene amplified from human genomic DNA and cloned into pcDNA3.1(+); also called HEK FPR2; HEK‐FPR2; source: nucleofection with a GFP plasmid for biosensors), on living cells
With B1, the “SPR signal relative to the Control peptide (f-MEQQNK) surface” value was approximately 4 fold.

These data come from paper PMC13042608, “Cross‐Platform Biosensing of Immune Receptors Using Peptide‐Functionalized Graphene” (Advanced Science, 2025).
